This test concerns the target SARS-CoV-2 Omicron (B.1.1.529) RBD (SARS-CoV-2 Omicron B.1.1.529 (BA.1), strain).

Residue numbers refer to the chain shown, from its start.

B1: BD55-3372 (antibody, V domains shown)
VH: EVHLVESGGGLVKPGGSLRLSCAASGFTFSNYAMNWVRQAPGKGLQWVSSITGSSSFIFYADSVKGRFTIVRDNAQNSLYLQMNSLRDEDTAVYYCARERDDYDTRLDWGQGTLVTVSS
VL: QPMLTQPPSVSGAPGQTVTISCVGSSSNIGAGYEVHWYQQLPGTAPKRLLSGNSDRPSGVPDRFSGSKSGTSASLAITGLQADDEADYYCQSYDSSLSLSAVVFGGGTKLTVL
As to B1, the binding result was “binds”.

B2: C556 (antibody, V domains shown)
VH: QVQLVQSGAEVKKPGASVKVSCKASGYTFTYYYMHWVRQAPGQGLEWMGIINPSGGSTSYAQKFQGRVTMTRDTSTSTVYMELSSLRSEDTAVYYCARPLLPGETGSLNRLDYWGQGTLVTVSS
VL: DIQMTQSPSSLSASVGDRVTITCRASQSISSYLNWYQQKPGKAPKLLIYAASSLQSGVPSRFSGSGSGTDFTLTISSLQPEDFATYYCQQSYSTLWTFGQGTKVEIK
In the case of B2, the binding result is listed as “binds”.

B3: BD55-3525 (antibody, V domains shown)
VH: EVQVVESGGGLVKPGGSLRLSCAGSGFTFNYAWMNWVRQAPGKGLEWVGRIKSETGGGTTDYAAPVRGRFTISRDDSKDTVFLQMNSLKTEDTAVYYCTTEATVTSWDAFDVWGQGTLVTVST
VL: QSVLTQPPSASGTSGQRVTISCSGSSSNIGSNTVNWYQQIPRRAPKLLIYRNNQRPSGVPDRFSASKSGTSASLAISGLHSEDEADYYCAAWDDRLNGFVFGTGTKVTVL
B3: the binding result was “binds”.

B4: BD-907 (antibody, V domains shown)
VH: QVQLVQSGSELKKPGASVKVSCKASGYTFSSYYLNWVRQAPGQGLEWMGWIDTNTGNPTYAQAFTGRFVFSLDTSVSTAYLQIGSLQANDTAVYYCAREGGGWSGLYYYFGMDVWGQGTTVTVSS
VL: EIVLTQSPGTLSLSPGERATVSCRASQSIGSNYLAWYQQKPGQAPRLLIYGASSRATGIPDRFSGSGSGTDFTLTISRLEPEDFAVYYCQQYGSSPPYTFGQGTKLEIK
As to B4, the binding result is given as “binds”.

B5: COV2-2103 (antibody, V domains shown)
VH: EVQLVESGGGLVQPGGSLRLSCAASGFTFSRHWMTWVRQAPGKGLEWVANIKQDGSEKYYVDSVKGRLTISRDNAKNSLYLQMNSLRAEDTAVYYCARLGFYYGGADYWGQGTLVTVSS
VL: NFMLTQPHSVSESPGKTVTISCTGSSGSIASNYVQWYQQRPGSAPTTVISEDNQRPSGVPDRFSGSIDSSSNSASLTISGLKTEDEADYYCQSYDGINRAWVFGGGTKLTVL
For B5, the binding result is on record as “binds”.

B6: BD-713 (antibody, V domains shown)
VH: EVQLVESGGGLVQPGRSLRLSCAASGFTFDDYAMHWVRQAPGKGLEWVSGMSWNSGTIGYADSVKGRFTIIRDNAKNSLYLQMIRLRAEDTALYYCAKASPRLDTAMAPFDYWGQGTLVTVSS
VL: SYVLTQPPSVSVAPGKTARITCGGNNIGSKSVHWYQQKPGQAPALVIYYDNDRPSGLPERFSGSNSGNTATLTISRVEAGDEADYYCQVWHSSSDSLVFGGGTKLTVL
As for B6, the binding result is reported as “binds”.

B7: COV2-2389 (antibody, V domains shown)
VH: EVQLVESGGGLVQPGRSLRLSCAASGFTFDDYAMHWVRQAPGKGLEWVSGISWNSGTIGYADSVKGRFIISRDNAKNSLYLQMNSLRPEDTALYYCAKDIIRQGEDGMDVWGQGTTVTVSS
VL: DIQMTQSPSSLSASVGDRVTITCRASQNIASYLNWYQQKPGKAPKLLIYAASSLQSGVPSRFSGSGSGTDFTLTISSLQPEEFATYYCQQSYSTPWTFGQGTKVEIK
Take B7: the binding result is recorded as “binds”.

B8: S304 (antibody, V domains shown)
VH: EVQLVESGGGLVQPGGSLRLSCAASGFTFSSYDMHWVRQTTGKGLEWVSTIGTAGDTYYPDSVKGRFTISREDAKNSLYLQMNSLRAGDTAVYYCARGDSSGYYYYFDYWGQGTLLTVSS
VL: DIEMTQSPSSLSAAVGDRVTITCRASQSIGSYLNWYQQKPGKAPKLLIYAASSLQSGVPSRFSGSGSGTDFTLTISSLQPEDFAIYYCQQSYVSPTYTFGPGTKVDIK
For the molecule B8, the binding result is listed as “binds”.

B9: C576 (antibody, V domains shown)
VH: QVQLVQSGAEVKKPGSSVKVSCKASGGTFSIYAISWVRQAPGQGLEWMGGIIPILGTANYAQKFQGRVTITADESTSTAYMELSSLRSEDTAVYYCASFHVAYGDYIPFDYWGQGTLVTVSS
VL: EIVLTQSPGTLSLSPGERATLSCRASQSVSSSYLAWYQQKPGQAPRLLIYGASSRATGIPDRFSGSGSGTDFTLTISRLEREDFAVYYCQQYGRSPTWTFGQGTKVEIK
With B9, the binding result is listed as “binds”.

B10: BD55-4325 (antibody, V domains shown)
VH: QAQLVQSGAEVKKPGASVKVSCEAIGYAFKTYGISWVRQAPGQGLEWVGWISGHDGTTNYAQKFQGRVTLTTDTSTNTAFLEVKSLRSDDTAVFYCARDKAYSGYDYWSTIFDYWGQGTLVTVST
VL: SYVLTQPPSVSVAPGKTATITCGGNNIRSKSVQWFQQRPGQAPILVLYYDTDRPSGIPERFSGSNSGNTATLTISRVEAGDEADYYCQVWDSTTDHYLFGTGTKVTVL
As for B10, the binding result was “binds”.

B11: BD55-1294 (antibody, V domains shown)
VH: QLHLQESGPGLVKPSETLSLTCTVSGGSIFSSTYYWGWIRQTPGKGLEWIGSFYNGGSTYYNPSLESRVTISEDTSKNQFSLKLSSVTAADTAVYYCARDLSETASYHNWFDPWGQGTLVTVSS
VL: DIQLTQSPSFLSASVGDRITITCRASQAISNYLAWYQQKPGKAPKLLIYGASTLHSGVPSRFSGSHSGSEFTLTISGLQPEDFATYYCQQLNSFGPGTKVDIK
Turning to B11, the binding result was “binds”.

B12: DH1193 (antibody, V domains shown)
VH: QVQLVESGGGVVQPGRSLRLSCAASGFTFSNYGMHWVRQAPGKGLEWVTVISYDGSNKYYADSVKGRFTISRDNSKNTLYLQMNSLRAEDTAVYYCAKVLTWSIHPEDYYYGMDVWGQGTTVTVSS
VL: QSALTQPPSASGSPGQSVTISCTGTSSDVGGYNYVSWYQQHPGKAPKLMIYEVSQRPSGVPDRFSGSKSGNTASLTVSGLQAEDEADYYCSSYAGSNIGVFGGGTTLTVL
In the case of B12, the binding result is “binds”.

B13: BD-815 (antibody, V domains shown)
VH: EVQLVQSGPEVKKPGESLKISCKASGYSFISNWIGWVRQMPGKGLEWMGIIYPGDSDTRYSPSFQGQVTISADRSITTAYLQWSSLKASDTAIYYCARLGSSWYWVDYWGQGTLVTVSS
VL: SSELTQDPAVSVALGQTVRITCQGDSLRSYHASWYQQKPGQAPILVIYDKNNRPSGIPDRFSGSGSGNTASLTITGAQAEDEADYYCNSRDSSGDHLVFGTGTKVTVL
For B13, the binding result is “binds”.

B14: BD-923 (antibody, V domains shown)
VH: EVLLVESGGGLVQPGRSLRLSCTASGFTFEDYAMHWVRQAPGKGLEWVSGMSWNSGTIGYADSVRGRFIISRDNAKNSLYLQMNSLRAEDTALYYCGKDRGFGESLYYVMDVWGQGATVTVSS
VL: QSALTQPASVSGSPGQSITISCTGTSSDVGVYNYVSWYQQHPGKAPKLMIYNVSDRPSGVSNRFSGSKSGNTASLTISGLQAEDEADYYCSSYTSSSIVIFGGGTKLTVL
In the case of B14, the binding result is “binds”.

B15: BD-692 (antibody, V domains shown)
VH: EVQLVESGGGLVQPGGSLRLSCAASGFTFSSHGMNWVRQAPGKGLEWVSYISSRDSTIYYADSVKGRFTISRDNAKNSLYLQMNSLRDEDTAVYYCARDNSDYDYSFGAYYFDYWGQGTLVTVSS
VL: EIVLTQSPATLSLSPGERATVSCRASQSVSNFLAWYQQKPGQAPRLLIHDASNRATGIPARFSGSGSGTDFTLTISSLEPEDFAVYYCQQRRNWPPVTFGQGTRLEIK
With B15, the binding result is given as “binds”.

B16: BD55-1831 (antibody, V domains shown)
VH: QVQLQESGPGLVKPSQTLSLTCTVSGGSISNGDYYWSWIRQPPGKGLEWIGYIHNSGSTYKKLSLRSRLTISVDTSKNQFSLKLSSVTAADTAVYYCARTASPSGAWYFDFWGRGTLVTVSS
VL: SYVLTQPPSVSVAPGQTARITCGGNDIGSKNVHWYQQKPGQAPLLVVYDDTDRPSGIPERFSGSNSGNPATLTISRVEAGDEADYYCQVWDSSFDHVIFGGGTKLTVL
For the molecule B16, the binding result is given as “binds”.

B17: BD-914 (antibody, V domains shown)
VH: QVQLVQSGAEVTKPGSSVKVSCKTSGDTFSLYPISWVRQAPGQGLEWMGRIIPIVGIADYAQKFQGRVTITADKSTSTAYMELSSLRSEDTAIYYCARDGNQYYYDSGGDYYVNYWGQGTLITVSS
VL: DIQMTQSPSSLSASVGDRVTITCQASQDIRKDLNWYRQRPGKAPKLLIYDASNLETGVPSRFSGSGSGTHFTFTISGLQPEDVATYYCQQYDNVPVTFGPGTKVDIR
B17: the binding result is recorded as “binds”.

B18: C581 (antibody, V domains shown)
VH: EVQLVQSGAEVKKPGESLKISCKGSGYRFTSYWIAWVRQMPGKGLEWMGIIYPGDSDTRYSPSFQGQVTISADQSISTAYLQWSSLKASDTAMYYCARGGPPGGVKLELTDYWGQGALVTVSS
VL: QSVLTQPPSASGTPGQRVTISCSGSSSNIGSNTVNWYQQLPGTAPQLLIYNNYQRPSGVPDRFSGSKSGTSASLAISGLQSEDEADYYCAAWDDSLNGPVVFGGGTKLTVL
B18: the binding result was “binds”.

B19: DH1044 (antibody, V domains shown)
VH: QVQLVESGGGVVQPGRSLRLSCAASGFTFSSYGMHWVRQAPGKGLEWVAVISFDGSNKYYVDSVKGRFTISRDNSKNTLYLQMNSLRAEDTAVYYCAKDMHNDYGDYVSYYFYYGMDVWGQGTTVTVSS
VL: QSVLTQPPSVSAAPGQKVIISCSGSSSNIGNNYVSWYQQLPGTAPKLLIYENNKRPSGIPDRFSGSKSGTSATLGITGLQTGDEADYYCGTWDSSLRTDVFGGGTKLIVL
B19: the binding result is “binds”.

B20: BD55-5300 (antibody, V domains shown)
VH: QVQLVQSGAEVKKPGSSVKVSCKASGGSFTSHAVSWVRQAPGQGLEWMGVSIPLFGTAKYAQKFQGRVTITADESTSTVYMSLSNLRSGDTAVYYCARLFPNGTPTDLTAPSDYWGQGTLVTVSS
VL: DIQMTQSPSSLSASVGDRVTITCQASQDIGNYLNWYQQKPGKAPKLLIYDASHLETGVPSRFSGSASGTDFTLTISSLQPDDIATYYCQRYDDVPTYTFGQGTKLEIK
Take B20: the binding result is recorded as “binds”.

B21: BD-796 (antibody, V domains shown)
VH: QVQLVQSGAEVKKPGSSVKVSCKASGGTFSSYAINWMRQAPGQGLEWMGGIIPILGIPNSAQKFQGRVTITADKSTSTAYMELSSLRSEDTAVYYCARMYNYDSSGLEADAFDIWGQGTMVTVSS
VL: QSVLTQPPSVSGAPGQRVTISCTGSSSNIGAGYDVHWYQQLPGTAPKLLIYGNSNRPSGVPDRFSGSKSGTSASLAITGLQAEDEADYYCQSYDSSLSGVVFGGGTKLTVL
In the case of B21, the binding result is “binds”.

B22: BD-913 (antibody, V domains shown)
VH: QVQLVQSGAEVKKPGSSVKVSCKASGGTFSTYAISWVRQAPGQGLEWMGGIIPIVGIANDAQKFQGRVTITADKSTSTAYMELSSLRSEDTAVFYCARAQRKQWPVEDAYDIWGQGTMVTVSS
VL: B21 VL with V100S, L108V
With B22, the binding result is given as “binds”.

(Values after paper PMC8866119 (Nature, 2021).)
